Laboratory results published in the supplement of paper PMC10126150.
± gives the standard deviation of the averaged measurements.

tested on: ATP; test: switch fluorescence ratio, 500 uM ATP over buffer (Cy3 cluster intensity, sum of 5 cycles each) (fold (ratio)); higher = stronger signal-on switching upon ATP binding; sequences stand for … in TCGTCGGCAGCGTCAGATGTGTATAAGAGACAGTTTTTTTTTTTTTTTTTTTTTTTTT…TC; details: aptamer strand: ATP DNA aptamer (quencher-CACCTGGGGGAGTATTGCGGAGGAAGG + anchor), 100 nM annealed; ATP concentration: 500 uM
Method in brief: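 Five buffer/ATP imaging cycles were run on Cy3-labelled switching-strand clusters on a modified Illumina MiSeq flow-cell, with NaOH stripping and re-annealing between cycles. In each cycle, clusters annealed to 100 nM quencher-labelled ATP aptamer were imaged in selection buffer, then after 15 min with 500 uM ATP at 22 °C. Per cluster, the fluorescence ratio is summed target-cycle over summed buffer-cycle Cy3 intensity, averaged per switch-domain sequence. Only clusters within 100-1000 RFU were kept.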
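Note: ATP exposure 15 min at 22 °C before imaging.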

| Sequence | switch fluorescence ratio |
| --- | --- |
| TAGGGTAGTT | 1.02 ± 0.071 |
| TAGGGTCATT | 0.999 ± 0.029 |
| TAGGGTCTCT | 0.989 ± 0.012 |
| TAGGGTGCTA | 1 ± 0.019 |
| TAGGGTGTCA | 1.03 ± 0.047 |
| TAGGTAAATT | 1.02 ± 0.054 |
| TAGGTACTGG | 1.04 ± 0.014 |
| TAGGTAGGTT | 1.015 ± 0.0086 |
| TAGGTAGTCT | 1.02 ± 0.015 |
| TAGGTATGGC | 0.976 ± 0.012 |
| TAGGTATGGG | 0.9955 ± 0.002 |
| TAGGTCCCGG | 0.996 ± 0.032 |
| TAGGTCGGCC | 1.004 ± 0.0061 |
| TAGGTCGGGT | 0.984 ± 0.035 |
| TAGGTCTAGT | 0.98706 ± 0.0005 |
| TAGGTGCAGG | 1.08 ± 0.068 |
| TAGGTGGACT | 1.01 ± 0.042 |
| TAGGTGGGCA | 0.987 ± 0.054 |
| TAGGTGGGCT | 1.011 ± 0.0064 |
| TAGGTTCTAA | 1.06 ± 0.079 |
| TAGGTTGCAA | 0.9665 ± 0.007 |
| TAGGTTGGTG | 1 ± 0.036 |
| TAGGTTTGCC | 1.08 ± 0.021 |
| TAGGTTTTGT | 1 ± 0.044 |
| TAGTAATTTG | 1.01 ± 0.019 |

| Sequence | switch fluorescence ratio |
| --- | --- |
| TAGTAGAGGT | 1 ± 0.043 |
| TAGTAGGGGT | 1.002 ± 0.0061 |
| TAGTAGGTAG | 0.985 ± 0.025 |
| TAGTAGGTTG | 0.979 ± 0.04 |
| TAGTATGGGG | 0.976 ± 0.045 |
| TAGTATGTTT | 1.004 ± 0.0061 |
| TAGTATTTTT | 0.977 ± 0.023 |
| TAGTCTAGTG | 0.9812 ± 0.0066 |
| TAGTCTTAGG | 0.973 ± 0.049 |
| TAGTGAAGGC | 0.988 ± 0.013 |
| TAGTGAAGTC | 1.02 ± 0.073 |
| TAGTGATCTT | 0.997 ± 0.0066 |
| TAGTGCACGG | 0.995 ± 0.039 |
| TAGTGGCAGC | 0.9797 ± 0.0053 |
| TAGTGGCTGG | 1 ± 0.026 |
| TAGTGGGATT | 0.994 ± 0.016 |
| TAGTGGTGGG | 0.9844 ± 0.0089 |
| TAGTGTATTG | 1.01 ± 0.012 |
| TAGTTAAATC | 1 ± 0.042 |
| TAGTTAATCA | 0.991 ± 0.01 |
| TAGTTAATTG | 0.987 ± 0.067 |
| TAGTTACGGT | 1.05 ± 0.064 |
| TAGTTACTTT | 1.02 ± 0.021 |
| TAGTTAGACG | 1.11 ± 0.1 |
| TAGTTATCGA | 0.997 ± 0.0069 |

| Sequence | switch fluorescence ratio |
| --- | --- |
| TAGTTCGGTT | 1.01 ± 0.016 |
| TAGTTCTGGG | 0.9428 ± 0.0012 |
| TAGTTGAAGG | 0.9942 ± 0.0051 |
| TAGTTGACAA | 0.99 ± 0.0024 |
| TAGTTGACCC | 1.01 ± 0.053 |
| TAGTTGCTCA | 0.993 ± 0.046 |
| TAGTTGGGAT | 0.991 ± 0.029 |
| TAGTTGGGCA | 0.987 ± 0.026 |
| TAGTTGTCCG | 1.02 ± 0.12 |
| TAGTTGTGGT | 0.99 ± 0.034 |
| TAGTTGTTTA | 0.985 ± 0.046 |
| TAGTTTTCAG | 1.02 ± 0.047 |
| TAGTTTTGAA | 0.997 ± 0.072 |
| TAGTTTTGGA | 0.988 ± 0.01 |
| TAGTTTTTAG | 0.981 ± 0.018 |
| TAGTTTTTCC | 1.03 ± 0.037 |
| TATAAAGAGG | 0.987 ± 0.038 |
| TATAAAGGGT | 1.02 ± 0.055 |
| TATAAAGTTT | 1.01 ± 0.0081 |
| TATAAATGGG | 1 ± 0.0042 |
| TATAACATGT | 0.997 ± 0.026 |
| TATAACGCTT | 1.01 ± 0.017 |
| TATAACTTGA | 1.02 ± 0.0048 |
| TATAAGAGCG | 1.004 ± 0.0065 |
| TATAAGGATG | 0.993 ± 0.019 |

| Sequence | switch fluorescence ratio |
| --- | --- |
| TATAAGTCAC | 1.146 ± 0.011 |
| TATAATAGTT | 0.965 ± 0.037 |
| TATAATCGA | 1.03 ± 0.067 |
| TATAATGCGC | 0.995 ± 0.034 |
| TATAATGGCG | 0.961 ± 0.04 |
| TATAATTGCC | 0.991 ± 0.0076 |
| TATAATTTCT | 1.04 ± 0.018 |
| TATACATCTG | 1.0055 ± 0.00054 |
| TATACGAAGA | 1.08 ± 0.045 |
| TATACGGGAT | 1.06 ± 0.043 |
| TATACGGGGA | 1.01 ± 0.021 |
| TATACGGTTA | 1.06 ± 0.022 |
| TATACTAGTT | 1.04 ± 0.033 |
| TATACTCCTG | 1.16 ± 0.041 |
| TATACTTAGT | 1.025 ± 0.0036 |
| TATAGAAAAT | 1.03 ± 0.026 |
| TATAGAAGCG | 1.01 ± 0.021 |
| TATAGAAGT | 1.002 ± 0.0015 |
| TATAGAGTAA | 1.02 ± 0.034 |
| TATAGAGTTT | 1.01 ± 0.023 |
| TATAGCCTAG | 0.99 ± 0.027 |
| TATAGGATGG | 0.98 ± 0.028 |
| TATAGGCAGG | 0.9772 ± 0.008 |
| TATAGGCCTC | 1.001 ± 0.0064 |
| TATAGGGTTT | 1.07 ± 0.12 |
